This is an account of results in PMC3622925.

The assay concerns the target Trichomonas vaginalis virus 1 strain UH9 coat protein (Trichomonas vaginalis virus 1 (TVV1), strain UH9). Kind of assay: cryo-EM structure.

For the substance “Trichomonas vaginalis virus 1 strain UH9 coat protein (natural protein)”, the stoichiometry N (subunits per capsid) came out at 120.
